Measured values: publication PMC9426534, “Interactions of Bacterial Toxin CNF1 and Host JAK1/2 Driven by Liquid-Liquid Phase Separation Enhance Macrophage Polarization” (mBio, 2022)

B1: MYC-JAK1 truncation mutant 1-544 (domain or fragment)
chain: MQYLNIKEDCNAMAFCAKMRSSKKTEVNLEAPEPGVEVIFYLSDREPLRLGSGEYTAEELCIRAAQACRISPLCHNLFALYDENTKLWYAPNRTITVDDKMSLRLHYRMRFYFTNWHGTNDNEQSVWRHSPKKQKNGYEKKKIPDATPLLDASSLEYLFAQGQYDLVKCLAPIRDPKTEQDGHDIENECLGMAVLAISHYAMMKKMQLPELPKDISYKRYIPETLNKSIRQRNLLTRMRINNVFKDFLKEFNNKTICDSSVSTHDLKVKYLATLETLTKHYGAEIFETSMLLISSENEMNWFHSNDGGNVLYYEVMVTGNLGIQWRHKPNVVSVEKEKNKLKRKKLENKHKKDEEKNKIREEWNNFSYFPEITHIVIKESVVSINKQDNKKMELKLSSHEEALSFVSLVDGYFRLTADAHHYLCTDVAPPLIVHNIQNGCHGPICTEYAINKLRQEGSEEGMYVLRWSCTDFDNILMTVTCFEKSEQVQGAQKQFKNFQIEVQKGRYSLHGSDRSFPSLGDLMSHLKKQILRTDNISFMLKRCC
notes: source: recombinant, purified
B2: MYC-JAK1 truncation mutant 1-855 (domain or fragment)
chain: MQYLNIKEDCNAMAFCAKMRSSKKTEVNLEAPEPGVEVIFYLSDREPLRLGSGEYTAEELCIRAAQACRISPLCHNLFALYDENTKLWYAPNRTITVDDKMSLRLHYRMRFYFTNWHGTNDNEQSVWRHSPKKQKNGYEKKKIPDATPLLDASSLEYLFAQGQYDLVKCLAPIRDPKTEQDGHDIENECLGMAVLAISHYAMMKKMQLPELPKDISYKRYIPETLNKSIRQRNLLTRMRINNVFKDFLKEFNNKTICDSSVSTHDLKVKYLATLETLTKHYGAEIFETSMLLISSENEMNWFHSNDGGNVLYYEVMVTGNLGIQWRHKPNVVSVEKEKNKLKRKKLENKHKKDEEKNKIREEWNNFSYFPEITHIVIKESVVSINKQDNKKMELKLSSHEEALSFVSLVDGYFRLTADAHHYLCTDVAPPLIVHNIQNGCHGPICTEYAINKLRQEGSEEGMYVLRWSCTDFDNILMTVTCFEKSEQVQGAQKQFKNFQIEVQKGRYSLHGSDRSFPSLGDLMSHLKKQILRTDNISFMLKRCCQPKPREISNLLVATKKAQEWQPVYPMSQLSFDRILKKDLVQGEHLGRGTRTHIYSGTLMDYKDDEGTSEEKKIKVILKVLDPSHRDISLAFFEAASMMRQVSHKHIVYLYGVCVRDVENIMVEEFVEGGPLDLFMHRKSDVLTTPWKFKVAKQLASALSYLEDKDLVHGNVCTKNLLLAREGIDSECGPFIKLSDPGIPITVLSRQECIERIPWIAPECVEDSKNLSVAADKWSFGTTLWEICYNGEIPLKDKTLIEKERFYESRCRPVTPSCKELADLMTRCMNYDPNQRPFFRAIMRDINKLEEQNPDI
notes: source: recombinant, purified
B3: FLAG-CNF1 truncation mutant 190-1014 (C1) (domain or fragment)
chain: RSDNISLLFFDIYGYYASDIFVAKNNDKVMLFIPGAKKPFLFKKNIADLRLTLKELIKDSDKQQLLSQHFSLYSRQDGVSYAGVNSVLHAIENDGNFNESYFLYSNKTLSNKDVFDAIAISVKKRSFSDGDIVIKSNSEAQRDYALTILQTILSMTPIFDIVVPEVSVPLGLGIITSSMGISFDQLINGDTYEERRSAIPGLATNAVLLGLSFAIPLLISKAGINQEVLSSVINNEGRTLNETNIDIFLKEYGIAEDSISSTNLLDVKLKSSGQHVNIVKLSDEDNQIVAVKGSSLSGIYYEVDIETGYEILSRRIYRTEYNNEILWTRGGGLKGGQPFDFESLNIPVFFKDEPYSAVTGSPLSFINDDSSLLYPDTNPKLPQPTSEMDIVNYVKGSGSFGDRFVTLMRGATEEEAWNIASYHTAGGSTEELHEILLGQGPQSSLGFTEYTSNVNSADAASRRHFLVVIKVHVKYITNNNVSYVNHWAIPDEAPVEVLAVVDRRFNFPEPSTPPDISTIRKLLSLRYFKESIESTSKSNFQKLSRGNIDVLKGRGSISSTRQRAIYPYFEAANADEQQPLFFYIKKDRFDNHGYDQYFYDNTVGLNGIPTLNTYTGEIPSDSSSLGSTYWKKYNLTNETSIIRVSNSARGANGIKIALEEVQEGKPVIITSGNLSGCTTIVARKEGYIYKVHTGTTKSLAGFTSTTGVKKAVEVLELLTKEPIPRVEGIMSNDFLVDYLSENFEDSLITYSSSEKKPDSQITIIRDNVSVFPYFLDNIPEHGFGTSATVLVRVDGNVVVRSLSESYSLNADASEISVLKVFSKKF
notes: source: recombinant, purified
B4: FLAG-CNF1 truncation mutant 1-720 (N2) (domain or fragment)
chain: MGNQWQQKYLLEYNELVSNFPSPERVVSDYIKNCFKTDLPWFSRIDPDNAYFICFSQNRSNSRSYTGWDHLGKYKTEVLTLTQAALINIGYRFDVFDDANSSTGIYKTKSADVFNEENEEKMLPSEYLHFLQKCDFAGVYGKTLSDYWSKYYDKFKLLLKNYYISSALYLYKNGELDEREYNFSMNALNRSDNISLLFFDIYGYYASDIFVAKNNDKVMLFIPGAKKPFLFKKNIADLRLTLKELIKDSDKQQLLSQHFSLYSRQDGVSYAGVNSVLHAIENDGNFNESYFLYSNKTLSNKDVFDAIAISVKKRSFSDGDIVIKSNSEAQRDYALTILQTILSMTPIFDIVVPEVSVPLGLGIITSSMGISFDQLINGDTYEERRSAIPGLATNAVLLGLSFAIPLLISKAGINQEVLSSVINNEGRTLNETNIDIFLKEYGIAEDSISSTNLLDVKLKSSGQHVNIVKLSDEDNQIVAVKGSSLSGIYYEVDIETGYEILSRRIYRTEYNNEILWTRGGGLKGGQPFDFESLNIPVFFKDEPYSAVTGSPLSFINDDSSLLYPDTNPKLPQPTSEMDIVNYVKGSGSFGDRFVTLMRGATEEEAWNIASYHTAGGSTEELHEILLGQGPQSSLGFTEYTSNVNSADAASRRHFLVVIKVHVKYITNNNVSYVNHWAIPDEAPVEVLAVVDRRFNFPEPSTPPDISTIRKLLSLRYFKES
notes: source: recombinant, purified

Columns and labels:
[1] = biological target: T1, Cytotoxic necrotizing factor 1 (CNF1), recombinant FLAG-tagged, full length (uropathogenic Escherichia coli (UPEC), UniProt Q47106 1-1014); experiment: co-IP; in vitro, purified proteins; truncated MYC-tagged JAK1 proteins precipitated, FLAG-tagged CNF1 detected and normalised to the MYC-JAK1 in the IP; conditions: both partners purified
T1 construct: also called FLAG-CNF1; FLAG-tagged full-length CNF1; source: recombinant, purified (additionally by size exclusion chromatography)

[2] = biological target: T2, MYC-tagged JAK1, full length (UniProt P23458 1-1154); experiment: co-IP; in vitro, purified proteins; truncated FLAG-tagged CNF1 proteins precipitated, MYC-tagged JAK1 detected and normalised to the FLAG-CNF1 in the IP; conditions: both partners purified
T2 construct: also called MYC-JAK1; MYC-tagged full-length JAK1; source: HeLa, transfected, in lysate

Binder	binding result [1]	binding result [2]
B1	binds	
B2	binds	
B3		binds
B4		binds
